Results published in article doi:10.1101/2024.03.12.584494.

Key:
Assay in all cases: co-IP
[1] = molecular target: mGFP-PICK1 5K-E (mouse) (UniProt Q62083)
[2] = molecular target: mCherry-KIBRA WT (mouse) (UniProt Q5SXA9)
[3] = molecular target: mCherry-PICK1 WT (mouse) (UniProt Q62083)
[4] = molecular target: mGFP-KIBRA ΔαBR (mouse) (UniProt Q5SXA9)
[5] = molecular target: mGFP-KIBRA ΔC2 (mouse) (UniProt Q5SXA9)
[6] = molecular target: mGFP-KIBRA ΔCCL (mouse) (UniProt Q5SXA9)
[7] = molecular target: mGFP-KIBRA ΔCt (mouse) (UniProt Q5SXA9)

Chain of mCherry-PICK1 WT (mouse) (Q62083 whole entry): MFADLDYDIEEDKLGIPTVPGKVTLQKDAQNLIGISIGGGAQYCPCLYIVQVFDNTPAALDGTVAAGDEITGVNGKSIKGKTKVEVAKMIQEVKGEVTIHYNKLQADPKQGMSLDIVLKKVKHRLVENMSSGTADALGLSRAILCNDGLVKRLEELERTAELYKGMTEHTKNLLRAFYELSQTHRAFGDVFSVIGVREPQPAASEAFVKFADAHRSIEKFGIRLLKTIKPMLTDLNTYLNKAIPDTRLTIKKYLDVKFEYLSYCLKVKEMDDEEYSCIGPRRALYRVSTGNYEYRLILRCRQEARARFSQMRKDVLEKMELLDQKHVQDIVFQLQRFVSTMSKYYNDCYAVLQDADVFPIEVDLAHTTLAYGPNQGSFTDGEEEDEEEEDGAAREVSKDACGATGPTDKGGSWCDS
Chain of mGFP-PICK1 5K-E (mouse) (Q62083 whole entry): as above
Chain of mGFP-KIBRA ΔCt (Q5SXA9 whole entry, stated change not applied): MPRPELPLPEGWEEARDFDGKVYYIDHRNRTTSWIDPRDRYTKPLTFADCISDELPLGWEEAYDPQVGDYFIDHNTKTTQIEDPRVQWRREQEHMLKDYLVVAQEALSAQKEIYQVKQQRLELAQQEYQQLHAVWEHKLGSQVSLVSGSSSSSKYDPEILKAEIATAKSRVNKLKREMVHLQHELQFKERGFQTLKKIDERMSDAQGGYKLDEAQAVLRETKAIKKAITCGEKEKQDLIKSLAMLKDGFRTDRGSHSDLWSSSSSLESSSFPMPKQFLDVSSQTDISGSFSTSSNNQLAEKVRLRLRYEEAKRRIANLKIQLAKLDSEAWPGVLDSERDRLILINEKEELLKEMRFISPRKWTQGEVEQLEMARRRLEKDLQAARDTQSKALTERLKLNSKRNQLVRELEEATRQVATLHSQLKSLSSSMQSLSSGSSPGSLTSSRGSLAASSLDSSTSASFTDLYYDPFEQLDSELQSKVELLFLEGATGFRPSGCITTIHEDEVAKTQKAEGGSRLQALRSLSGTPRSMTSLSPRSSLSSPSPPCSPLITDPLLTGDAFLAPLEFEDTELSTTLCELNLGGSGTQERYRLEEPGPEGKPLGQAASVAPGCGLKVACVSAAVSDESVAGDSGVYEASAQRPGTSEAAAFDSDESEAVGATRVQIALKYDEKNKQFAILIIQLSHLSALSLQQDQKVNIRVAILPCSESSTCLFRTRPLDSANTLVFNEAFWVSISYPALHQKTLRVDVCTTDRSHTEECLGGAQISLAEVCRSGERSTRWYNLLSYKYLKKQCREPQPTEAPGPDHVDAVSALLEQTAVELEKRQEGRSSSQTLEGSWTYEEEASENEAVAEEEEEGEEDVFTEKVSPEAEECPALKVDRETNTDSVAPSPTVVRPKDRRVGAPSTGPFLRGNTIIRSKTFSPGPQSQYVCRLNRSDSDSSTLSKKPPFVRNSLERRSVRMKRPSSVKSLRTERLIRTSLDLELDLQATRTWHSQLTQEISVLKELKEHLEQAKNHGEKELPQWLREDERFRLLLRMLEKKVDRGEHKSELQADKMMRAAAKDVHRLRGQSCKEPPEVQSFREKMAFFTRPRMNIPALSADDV
Chain of mCherry-KIBRA WT (mouse) (Q5SXA9 whole entry): as the sequence (Q5SXA9 whole entry, stated change not applied) above
Chain of mGFP-KIBRA ΔC2 (Q5SXA9 whole entry, stated change not applied): as above
Chain of mGFP-KIBRA ΔCCL (Q5SXA9 whole entry, stated change not applied): as above
Chain of mGFP-KIBRA ΔαBR (Q5SXA9 whole entry, stated change not applied): as above
Chain of mGFP-PICK1 KD-AA (Q62083 whole entry): as the sequence (Q62083 whole entry) above
Chain of mGFP-PICK1 BAR (domain or fragment) (Q62083 whole entry, the tested form may be a part): as the sequence (Q62083 whole entry) above
Chain of mGFP-KIBRA ΔWW (Q5SXA9 whole entry, stated change not applied): as the sequence (Q5SXA9 whole entry, stated change not applied) above
Chain of mCherry-KIBRA WT (Q5SXA9 whole entry): as the sequence (Q5SXA9 whole entry, stated change not applied) above
Chain of Myc-GluA2 (P19491 22-883): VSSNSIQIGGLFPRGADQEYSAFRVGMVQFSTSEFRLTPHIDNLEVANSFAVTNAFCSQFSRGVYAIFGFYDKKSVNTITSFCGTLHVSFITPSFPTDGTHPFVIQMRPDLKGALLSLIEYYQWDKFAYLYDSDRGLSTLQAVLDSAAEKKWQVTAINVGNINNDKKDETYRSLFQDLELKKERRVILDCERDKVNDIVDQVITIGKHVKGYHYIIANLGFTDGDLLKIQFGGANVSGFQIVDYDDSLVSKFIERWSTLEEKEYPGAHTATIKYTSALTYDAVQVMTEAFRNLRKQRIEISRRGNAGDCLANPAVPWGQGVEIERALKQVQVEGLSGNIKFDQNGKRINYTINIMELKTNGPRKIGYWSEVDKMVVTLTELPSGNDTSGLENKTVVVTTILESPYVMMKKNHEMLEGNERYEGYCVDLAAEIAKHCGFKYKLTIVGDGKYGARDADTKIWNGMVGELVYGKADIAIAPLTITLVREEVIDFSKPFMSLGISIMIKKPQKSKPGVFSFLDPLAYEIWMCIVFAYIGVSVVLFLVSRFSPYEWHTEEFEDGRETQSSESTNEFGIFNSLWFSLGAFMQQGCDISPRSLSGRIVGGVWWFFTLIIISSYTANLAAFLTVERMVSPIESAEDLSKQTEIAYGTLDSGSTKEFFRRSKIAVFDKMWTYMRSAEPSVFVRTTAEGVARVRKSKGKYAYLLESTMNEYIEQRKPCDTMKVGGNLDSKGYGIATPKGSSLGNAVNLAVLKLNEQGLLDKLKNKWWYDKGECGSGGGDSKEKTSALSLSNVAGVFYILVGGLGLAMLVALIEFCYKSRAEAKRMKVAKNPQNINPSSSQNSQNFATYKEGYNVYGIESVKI

With “mCherry-KIBRA WT (from UniProt Q5SXA9 1-1104) (natural protein)” the KIBRA signal with PICK1 5K-E normalized to +PICK1 WT [1] was 0.63.
In the case of “mGFP-PICK1 KD-AA (from UniProt Q62083 1-416) (natural protein)”, the PICK1 pull down normalized to input and same-gel WT PICK1 [2] is reported as 0.8.
In the case of “mGFP-KIBRA ΔαBR (from UniProt Q5SXA9 1-1104) (natural protein)”, the co-precipitated KIBRA normalized to WT sample from the same blot [3] is reported as 1.84 and the co-precipitated mGFP-KIBRA normalized to WT sample from the same blot [4] is reported as 1.55.
Substance mGFP-PICK1 BAR (domain or fragment) has a PICK1 pull down normalized to input and same-gel WT PICK1 [2] of 2.06.
Substance “mGFP-KIBRA ΔC2 (from UniProt Q5SXA9 1-1104) (natural protein)” has a co-precipitated mGFP-KIBRA normalized to WT sample from the same blot [5] of 1.36 and a co-precipitated KIBRA normalized to WT sample from the same blot [3] of 1.08.
Substance “mGFP-KIBRA ΔCCL (from UniProt Q5SXA9 1-1104) (natural protein)” has a co-precipitated KIBRA normalized to WT sample from the same blot [3] of 1.53 and a co-precipitated mGFP-KIBRA normalized to WT sample from the same blot [6] of 1.6.
“Myc-GluA2 (from UniProt P19491 22-883) (receptor)” gave a GluA2 signal with PICK1 5K-E normalized to +PICK1 WT [1] of 0.27.
In the case of “mGFP-KIBRA ΔCt (from UniProt Q5SXA9 1-1104) (natural protein)”, the co-precipitated KIBRA normalized to WT sample from the same blot [3] is reported as 5.79 and the co-precipitated mGFP-KIBRA normalized to WT sample from the same blot [7] is reported as 1.
“mGFP-KIBRA ΔWW (from UniProt Q5SXA9 1-1104) (natural protein)” gave a co-precipitated KIBRA normalized to WT sample from the same blot [3] of 1.87.
